# Test results: the FLAb antibody collection (doi:10.1101/2023.12.08.570889)
# Legend:
# [1] = target: IL36R; assay: Kd (SPR)
# [2] = target: TNFRSF9, Q07011; assay: Kd (SPR)
Kd [1] [nM],Kd [2] [nM],Binder
68.3,,unnamed (protein) chain 1: QVQLVQSGAEVKKPGASVKVSCKASGYSFTSSWIHWVKQAPGQGLEWMGEINPGNVRTNYNENFRNKVTMTVDTSISTAYMELSRLRSDDTAVYYCTRMRYGEPWFDYWGQGTLVTVSS chain 2: QIVLTQSPGTLSLSPGERATMTCTASSSVSSSYFHWYQQKPGQAPRLWIYRTSRLASGVPDRFSGSGSGTDFTLTISRLEPEDAATYYCHQFHRSPLTFGAGTKLEIK
1.03,,unnamed (protein) chain 1: QVQLVQSGAEVKKPGASVKVSCKASGYTFTSSWIHWVKQAPGQGLEWMGEIYPGNSNTNYNENFRNKVTMTVDTSISTAYMELSRLRSDDTAVYYCTRVRFGEPYFDYWGQGTLVTVSS chain 2: QIVLTQSPGTLSLSPGERATMTCTASSSVSSSYFHWYQQKPGQAPRLWIYRTSRLASGVPDRFSGSGSGTDFTLTISRLEPEDAATYYCHQFHRSPLTFGAGTKLEIK
38.2,,unnamed (protein) chain 1: QVQLVQSGAEVKKPGASVKVSCKASGYTFTSSWIHWVKQAPGQGLEWMGEIYPGNSNTNYNENFRNKVTMTVDTSISTAYMELSRLRSDDTAVYYCTRSRYGEPYFDYWGQGTLVTVSS chain 2: QIVLTQSPGTLSLSPGERATMTCTASSSVSSSYFHWYQQKPGQAPRLWIYRTSRLASGVPDRFSGSGSGTDFTLTISRLEPEDAATYYCHQFHRSPLTFGAGTKLEIK
54.3,,unnamed (protein) chain 1: QVQLVQSGAEVKKPGASVKVSCKASGYTFTSNWIHWVKQAPGQGLEWMGEIYPGNSNTNYNENFRNKVTMTVDTSISTAYMELSRLRSDDTAVYYCTRVKYGEPYFDYWGQGTLVTVSS chain 2: QIVLTQSPGTLSLSPGERATMTCTASSSVSSSYFHWYQQKPGQAPRLWIYRTSRLASGVPDRFSGSGSGTDFTLTISRLEPEDAATYYCHQFHRSPLTFGAGTKLEIK
2.76,,unnamed (protein) chain 1: QVQLVQSGAEVKKPGASVKVSCKASGYTFTSSWIHWVKQAPGQGLEWMGEIYPGNSNTNYNENFRNKVTMTVDTSISTAYMELSRLRSDDTAVYYCTRVQYGEPYFDYWGQGTLVTVSS chain 2: QIVLTQSPGTLSLSPGERATMTCTASSSVSSSYFHWYQQKPGQAPRLWIYRTSRLASGVPDRFSGSGSGTDFTLTISRLEPEDAATYYCHQFHRSPLTFGAGTKLEIK
138,,unnamed (protein) chain 1: QVQLVQSGAEVKKPGASVKVSCKASGYTFTSSWIHWVKQAPGQGLEWMGEIKPGNSNTNYNENFRNKVTMTVDTSISTAYMELSRLRSDDTAVYYCTRVSYGEPYFDYWGQGTLVTVSS chain 2: QIVLTQSPGTLSLSPGERATMTCTASSSVSSSYFHWYQQKPGQAPRLWIYRTSRLASGVPDRFSGSGSGTDFTLTISRLEPEDAATYYCHQFHRSPLTFGAGTKLEIK
11,,unnamed (protein) chain 1: QVQLVQSGAEVKKPGASVKVSCKASGYTFTSNWIHWVKQAPGQGLEWMGEIYPGNSNTNYNENFRNKVTMTVDTSISTAYMELSRLRSDDTAVYYCTRVSYGEPYFDYWGQGTLVTVSS chain 2: QIVLTQSPGTLSLSPGERATMTCTASSSVSSSYFHWYQQKPGQAPRLWIYRTSRLASGVPDRFSGSGSGTDFTLTISRLEPEDAATYYCHQFHRSPLTFGAGTKLEIK
14.6,,unnamed (protein) chain 1: QVQLVQSGAEVKKPGASVKVSCKASGYTFTSNWIHWVKQAPGQGLEWMGEIYPGNSNTNYNENFRNKVTMTVDTSISTAYMELSRLRSDDTAVYYCTRVRYGEPYFDYWGQGTLVTVSS chain 2: QIVLTQSPGTLSLSPGERATMTCTASSSVSSSYFHWYQQKPGQAPRLWIYRTSRLASGVPDRFSGSGSGTDFTLTISRLEPEDAATYYCHQFHRSPLTFGAGTKLEIK
31.8,,unnamed (protein) chain 1: QVQLVQSGAEVKKPGASVKVSCKASGYTFTSNWIHWVKQAPGQGLEWMGEIYPGNSNTNYNENFRNKVTMTVDTSISTAYMELSRLRSDDTAVYYCTRVRYGEPWFDYWGQGTLVTVSS chain 2: QIVLTQSPGTLSLSPGERATMTCTASSSVSSSYFHWYQQKPGQAPRLWIYRTSRLASGVPDRFSGSGSGTDFTLTISRLEPEDAATYYCHQFHRSPLTFGAGTKLEIK
1.16,,unnamed (protein) chain 1: QVQLVQSGAEVKKPGASVKVSCKASGYSFTSSWIHWVKQAPGQGLEWMGEIYPGNSNTNYNENFRNKVTMTVDTSISTAYMELSRLRSDDTAVYYCTRVQYGEPYFDYWGQGTLVTVSS chain 2: QIVLTQSPGTLSLSPGERATMTCTASSSVSSSYFHWYQQKPGQAPRLWIYRTSRLASGVPDRFSGSGSGTDFTLTISRLEPEDAATYYCHQFHRSPLTFGAGTKLEIK
46.1,,unnamed (protein) chain 1: QVQLVQSGAEVKKPGASVKVSCKASGYTFTSNWIHWVKQAPGQGLEWMGEIYPGNSNTNYNENFRNKVTMTVDTSISTAYMELSRLRSDDTAVYYCTRVRFGEPWFDYWGQGTLVTVSS chain 2: QIVLTQSPGTLSLSPGERATMTCTASSSVSSSYFHWYQQKPGQAPRLWIYRTSRLASGVPDRFSGSGSGTDFTLTISRLEPEDAATYYCHQFHRSPLTFGAGTKLEIK
3.35,,unnamed (protein) chain 1: QVQLVQSGAEVKKPGASVKVSCKASGYSFTSNWIHWVKQAPGQGLEWMGEIYPGNSNTNYNENFRNKVTMTVDTSISTAYMELSRLRSDDTAVYYCTRVRYGEPWFDYWGQGTLVTVSS chain 2: QIVLTQSPGTLSLSPGERATMTCTASSSVSSSYFHWYQQKPGQAPRLWIYRTSRLASGVPDRFSGSGSGTDFTLTISRLEPEDAATYYCHQFHRSPLTFGAGTKLEIK
1.35,,unnamed (protein) chain 1: QVQLVQSGAEVKKPGASVKVSCKASGYTFTSNWIHWVKQAPGQGLEWMGEIYPGNSNTNYNENFRNKVTMTVDTSISTAYMELSRLRSDDTAVYYCTRVRYGYPYFDYWGQGTLVTVSS chain 2: QIVLTQSPGTLSLSPGERATMTCTASSSVSSSYFHWYQQKPGQAPRLWIYRTSRLASGVPDRFSGSGSGTDFTLTISRLEPEDAATYYCHQFHRSPLTFGAGTKLEIK
0.757,,unnamed (protein) chain 1: QVQLVQSGAEVKKPGASVKVSCKASGYTFTSAWIHWVKQAPGQGLEWMGEIYPGNSNTNYNENFRNKVTMTVDTSISTAYMELSRLRSDDTAVYYCTRVRYGEPYFDYWGQGTLVTVSS chain 2: QIVLTQSPGTLSLSPGERATMTCTASSSVSSSYFHWYQQKPGQAPRLWIYRTSRLASGVPDRFSGSGSGTDFTLTISRLEPEDAATYYCHQFHRSPLTFGAGTKLEIK
0.933,,unnamed (protein) chain 1: QVQLVQSGAEVKKPGASVKVSCKASGYSFTSSWIHWVKQAPGQGLEWMGEIYPGNSNTNYNENFRNKVTMTVDTSISTAYMELSRLRSDDTAVYYCTRVRYGEPYFDYWGQGTLVTVSS chain 2: QIVLTQSPGTLSLSPGERATMTCTASSSVSSSYFHWYQQKPGQAPRLWIYRTSRLASGVPDRFSGSGSGTDFTLTISRLEPEDAATYYCHQFHRSPLTFGAGTKLEIK
6.22,,unnamed (protein) chain 1: QVQLVQSGAEVKKPGASVKVSCKASGYSFTSSWIHWVKQAPGQGLEWMGEIYPGNSNTNYNENFRNKVTMTVDTSISTAYMELSRLRSDDTAVYYCTRLRYGEPYFDYWGQGTLVTVSS chain 2: QIVLTQSPGTLSLSPGERATMTCTASSSVSSSYFHWYQQKPGQAPRLWIYRTSRLASGVPDRFSGSGSGTDFTLTISRLEPEDAATYYCHQFHRSPLTFGAGTKLEIK
157,,unnamed (protein) chain 1: QVQLVQSGAEVKKPGASVKVSCKASGYTFTSSWIHWVKQAPGQGLEWMGEIYPGNSNTNYNENFRNKVTMTVDTSISTAYMELSRLRSDDTAVYYCTRSRYGEPWFDYWGQGTLVTVSS chain 2: QIVLTQSPGTLSLSPGERATMTCTASSSVSSSYFHWYQQKPGQAPRLWIYRTSRLASGVPDRFSGSGSGTDFTLTISRLEPEDAATYYCHQFHRSPLTFGAGTKLEIK
,295,unnamed (protein) chain 1: EVQLVQSGAEVKKPGESLRISCKGSGYSFSTYWISWVRQMPGKGLEWMGKIYPGDSYTNYSPSFQGQVTISADKSISTAYLQWSSLKASDTAMYYCSRGSGIFDYWGQGTLVTVSS chain 2: SYELTQPPSVSVSPGQTASITCSGDNIGDQYAHWYQQKPGQSPVLVIYQDKNRPSGIPERFSGSNSGNTATLTISGTQAMDEADYYCATYTGFGSLAVFGGGTKLTVL
,225,unnamed (protein) chain 1: EVQLVQSGAEVKKPGESLRISCKGSGYSFSTYWISWVRQMPGKGLEWMGKIYPGDSYTNYSPSFQGQVTISADKSISTAYLQWSSLKASDTAMYYCTRGSGLFDYWGQGTLVTVSS chain 2: SYELTQPPSVSVSPGQTASITCSGDNIGDQYAHWYQQKPGQSPVLVIYQDKNRPSGIPERFSGSNSGNTATLTISGTQAMDEADYYCATYTGFGSLAVFGGGTKLTVL
